Experimental findings from patent US20190381171A1, “CO-USE OF ANTI-BCMA ANTIBODY AND ANTIBODY-COUPLED T CELL RECEPTOR (ACTR) IN CANCER THERAPY AND B CELL DISORDERS” (UNUM THERAPEUTICS INC., priority 2017, published 2019) are described below.

What all share (type): cell-based, human
The test system of one data set is NCI-H929 target cells. Briefly: Cytotoxicity assay with luciferase-expressing target cells and ACTR T-cells. On the procedure:
(§1) T-cells expressing ACTR variant SEQ ID NO: 1 (effector; E) and target cells (target; T) were incubated at a 4:1, effector-to-target ratio (120,000 T cells; 30,000 target cells) with increasing concentrations of various chimeric anti-BCMA antibodies (FIG. 3, parts A and B), humanized anti-BCMA antibody clones (FIG. 5, parts A and B), or anti-BCMA antibodies derived from the NCI-murine BCMA CAR sequence shown in WO2010104949A2 (FIG. 6, parts A and B) in a 200-μL reaction volume with RPMI 1640 media supplemented with 10% fetal bovine serum. The chimeric and humanized antibodies analyzed included fucosylated and afucosylated (labeled as “SEA”) versions of the SG16.17 and SG16.45 anti-BCMA antibodies. Reactions were incubated in a CO2 (5%) incubator at 37 degrees C. for 24 or 48 hours. An equal volume of Bright-Glo luciferase assay reagent (Promega; Madison, Wis.) was added prior to a 10 minute room temperature incubation. Luminescence was measured using an EnVision Multi-label plate reader (PerkinElmer; Waltham, Mass.). The percentage of live cells was determined by dividing the luminescence signal of a given sample by the luminescence signal in the absence of antibody and multiplying by 100. The percent cytotoxicity was determined by subtracting the percentage of live cells from 100. The percentage of antibody specific cytotoxicity (%) was then plotted as a function of antibody concentration.
(§2) In FIG. 8, T-cells expressing ACTR variant SEQ ID NO: 1 (effector; E) and target cells (target; T) were incubated at a 4:1, effector-to-target ratio (120,000 T cells; 30,000 target cells) with increasing concentrations of humanized afucosylated (SEA) anti-BCMA antibody SG16.17 in a 200-μL reaction volume in RPMI 1640 media supplemented with 10% fetal bovine serum. Target-cell luminescence was measured and percent cytotoxicity was determined as in Example 3.
(§3) T-cells (effector; E) and target cells (target; T) were incubated at varying effector-to-target (E:T) cell ratios in the presence of 10 μg/mL anti-BCMA antibody (FIG. 13), in a 200-μL reaction volume in RPMI 1640 media supplemented with 10% fetal bovine serum. The antibodies included fucosylated and afucosylated (SEA) versions of the two anti-BCMA antibodies (SG16.17 and SG16.45). […] Target cell luminescence was measured and percent cytotoxicity was determined as in Example 3.
(§4) In FIG. 18, T-cells (effector; E) and target cells (target; T) were incubated at a 4:1, effector-to-target ratio (30,000 target cells) with increasing concentration of humanized afucosylated anti-BCMA antibody hSG16.17SEA in a 200-μL reaction volume in RPMI 1640 media supplemented with 10% fetal bovine serum. […] Target cell luminescence was measured and percent cytotoxicity was determined as described in Example 3.

Data set [1] has as its system U266B1 target cells. The description is as above. Here is the method:
as §1, §2, §3, §4

Data set [2] deals with U266B1 target cells. As to the kind of experiment: Activation markers (CD25, CD69) on ACTR T-cells by flow cytometry. Conditions: ACTR variant SEQ ID NO: 1, E:T 1:1, 1 μg/mL antibody, 24 hours. On the procedure:
T-cells (effector; E) and target cells (target; T) were incubated at a 1:1, effector-to-target ratio (30,000 T cells; 30,000 target cells) with 1 μg/mL of anti-BCMA antibodies in a 200-μL reaction volume in RPMI 1640 media supplemented with 10% fetal bovine serum. Reactions were incubated in a CO2 (5%) incubator at 37 degrees C. for 24 hours. Geometric Mean Fluorescence intensity (gMFI) of two activation markers, CD25 and CD69 were determined in the total CD3+ CD16+ ACTR T-cell gate via flow cytometry. Briefly, cells were washed twice in staining buffer before being stained with a Live/Dead eFluor-450 dye for 30 min at 4 degrees C. After incubating in the live/dead cell stain, cells were washed twice and incubated with 100 μL of an antibody cocktail consisting of AF488-conjugated anti-human CD3 antibody, APC-conjugated anti-human CD16 antibody, PerCP-Cy5.5-conjugated anti-human CD25 antibody, and BV510-conjugated anti-human CD69 antibody. Subsequently, cells were washed twice, fixed, permeabilized, and stained for intracellular molecules prior to detection via flow cytometry. Flow cytometry gating on CD3+ CD16+ ACTR T-cells was performed after doublet and dead cell exclusion.
(In general: A flow cytometer gives signals particle by particle.)

[3] abbreviates: T-cells expressing ACTR variant SEQ ID NO: 1, E:T 4:1, increasing antibody concentrations, 24 or 48 hours.

B1: cSG16.45SEA: afucosylated (SEA) version of the chimeric SG16.45 anti-BCMA antibody (antibody, V domains shown)
VH: EVQLVESGGGLVQPGRSLKLSCVASGFTFNDHWMTWIRQAPGRGLEWISSITNTGGATYYLDSVKGRFTISRDNAKSTLYLQMNSLRSEDTATYYCTSPGLYFDYWGQGVMVTVSS
VL: EIVLTQSPTTTAASPGEKVTITCLATSSVSVMYWYQHKSGASPKLLIYSTSSLASGVPDRFSGSGSGTSYSLTINTMEAEDAATYYCHQWSSDPPTFGSGTKLEIKR
For B1, the “cytotoxicity at varying E:T ratios” value with NCI-H929 target cells (T-cells expressing ACTR variant SEQ ID NO: 1, 10 μg/mL anti-BCMA antibody, 24 hours) was “increased potency in comparison to the fucosylated antibodies”; with U266B1 target cells [1] (T-cells expressing ACTR variant SEQ ID NO: 1, 10 μg/mL anti-BCMA antibody, 48 hours), “increased potency in comparison to the fucosylated antibodies”. Besides, the antibody specific cytotoxicity entry with NCI-H929 target cells (setting [3]) and in the data set with U266B1 target cells [1] (setting [3]) was “increased cytotoxicity when compared with the fucosylated antibodies” throughout. The “levels of activation markers CD25 and CD69 (gMFI) on ACTR T-cells” value with U266B1 target cells [2] was “enhanced expression of CD25 and CD69 when compared to incubations with their fucosylated counterparts”.
